Measured values published in publication PMC12098678.
Each block holds one substance with its values, some of them ahead of it.

How the values were obtained:
[1] = biological target: human recombinant biotinylated FcRn (neonatal Fc receptor) (human) (UniProt P55899)
[2] = biological target: human recombinant biotinylated FcRn (neonatal Fc receptor) (human) (UniProt P55899); assay: SPR; ProteOn XPR36; biotinylated human FcRn immobilised on an NLC chip, IL-12Fc variants or control antibodies as analytes (0-6075 nM); histidine buffer (20 mM histidine, 150 mM NaCl, 0.05% Tween 20) pH 6.0; KD from binding equilibrium analysis; values of Figure 2B (for WT and NHQ those of the channel labelled 100-115 RU in the sheet of Figure S2C)
[3] = biological target: human recombinant biotinylated FcRn (neonatal Fc receptor) (human) (UniProt P55899); assay: SPR; as a1, channel L4, FcRn coating density labelled 75-80 RU; WT 365-4.5 nM, NHQ 3645-45 nM; pH 6.0; equilibrium analysis
[4] = biological target: human recombinant biotinylated FcRn (neonatal Fc receptor) (human) (UniProt P55899); assay: SPR; as a1, channel L5, FcRn coating density labelled 30-35 RU; WT 365-4.5 nM, NHQ 3645-45 nM; pH 6.0; equilibrium analysis
[5] = biological target: human recombinant biotinylated FcRn (neonatal Fc receptor) (human) (UniProt P55899); assay: SPR; as a1, channel L1, FcRn coating density labelled 550-600 RU; WT 365-4.5 nM, NHQ 3645-45 nM; pH 6.0; equilibrium analysis
[6] = biological target: human recombinant biotinylated FcRn (neonatal Fc receptor) (human) (UniProt P55899); assay: SPR; as a1, channel L2, FcRn coating density labelled 250-260 RU; WT 365-4.5 nM, NHQ 3645-45 nM; pH 6.0; equilibrium analysis

Substance: IL-12Fc WT (IHH) (Fc fusion)
Kd [3]: 186 nM | Kd [4]: 445 nM | Kd [2]: 101 nM | Kd [5]: 216 nM | Kd [6]: 60.1 nM

Substance: Control IgG4 (antibody)
Kd [2]: 343 nM

Substance: human IL-12Fc WT (IHH), single-chain IL-12 fused to human IgG4 Fc (Fc fusion)
residual brain level of IL-12Fc WT 6 h after CED in hFcRn Tg32 mice given the FcRn inhibitor MST-HN Fc (100 ug i.v.) beforehand [1]: > 50%

Next, values leading:

IL-12 level in the ipsilateral brain hemisphere 6 h after CED of 1 ug into the striatum of hFcRn Tg32 mice, compared to the IAQ and AAA variants and WT IL-12Fc [1]: > 30%
Substance: human IL-12Fc NHQ (I253N H435Q), FcRn-silenced IL-12Fc (Fc fusion)

Kd [2]: 218 nM
Substance: Control IgG1 (antibody)

Kd [2]: 182 nM
Substance: IL-12Fc WT S228P (Fc fusion)
